The values that follow come from paper PMC8092703, “Structural Basis for the Shared Neutralization Mechanism of Three Classes of Human Papillomavirus Type 58 Antibodies with Disparate Modes of Binding” (Journal of Virology, 2021).

For experiment [1], the target named is T1, HPV58 pseudovirus (PsV58) capsid (human papillomavirus type 58, UniProt P26535 1-524; P26538 1-472).
T1 sequence 1: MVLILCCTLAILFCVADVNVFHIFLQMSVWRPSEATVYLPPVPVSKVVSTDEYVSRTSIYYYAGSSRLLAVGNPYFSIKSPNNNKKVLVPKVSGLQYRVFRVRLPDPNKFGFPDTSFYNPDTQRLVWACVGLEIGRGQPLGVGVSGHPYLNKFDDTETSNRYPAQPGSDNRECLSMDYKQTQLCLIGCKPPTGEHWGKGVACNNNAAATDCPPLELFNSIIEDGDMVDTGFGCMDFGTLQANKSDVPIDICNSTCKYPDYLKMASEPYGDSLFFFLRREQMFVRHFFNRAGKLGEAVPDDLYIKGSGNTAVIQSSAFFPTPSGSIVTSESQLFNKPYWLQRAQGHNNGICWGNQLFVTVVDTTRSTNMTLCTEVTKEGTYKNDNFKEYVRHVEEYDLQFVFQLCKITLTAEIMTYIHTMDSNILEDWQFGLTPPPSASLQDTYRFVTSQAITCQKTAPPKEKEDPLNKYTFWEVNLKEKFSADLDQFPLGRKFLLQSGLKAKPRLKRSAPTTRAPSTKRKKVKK
T1 sequence 2: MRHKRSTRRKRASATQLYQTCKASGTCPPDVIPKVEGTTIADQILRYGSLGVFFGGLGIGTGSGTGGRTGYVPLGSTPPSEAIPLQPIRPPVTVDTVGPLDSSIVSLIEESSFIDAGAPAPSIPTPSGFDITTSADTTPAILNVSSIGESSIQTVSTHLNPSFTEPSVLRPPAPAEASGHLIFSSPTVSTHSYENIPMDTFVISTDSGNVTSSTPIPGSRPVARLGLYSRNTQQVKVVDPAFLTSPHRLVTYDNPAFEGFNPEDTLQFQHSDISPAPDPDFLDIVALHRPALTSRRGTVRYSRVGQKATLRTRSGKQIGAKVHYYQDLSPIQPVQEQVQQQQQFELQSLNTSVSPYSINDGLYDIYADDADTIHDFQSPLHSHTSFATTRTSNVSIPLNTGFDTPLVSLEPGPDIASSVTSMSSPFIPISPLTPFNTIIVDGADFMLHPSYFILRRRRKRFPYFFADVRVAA
In words: cell-based or functional assay.

Experiment [2] concerns the target HPV58 virus-like particles (VLPs) self-assembled from recombinant HPV58 L1 (human papillomavirus type 58, UniProt P26535 1-524, The printed source is GenBank AFS33402.1, which may differ from P26535 at isolate-variant positions. The start is taken by convention at MSVWRPSE (Met27 of P26535), and paper numbering + 26 = P26535 n). In words: ELISA; inhibition ELISA; HPV58 VLPs coated; diluted monoclonal antibody 1 h at 37°C, then rabbit standard antiserum against HPV58 VLPs 30 min at 37°C; HRP goat anti-rabbit IgG; inhibition rate. Conditions: both partners purified. (In general: ELISA stands for enzyme-linked immunosorbent assay.)

Experiment [3] concerns the target T2, HPV58 pseudovirus (PsV58) capsid (human papillomavirus type 58, UniProt P26535 1-524; P26538 1-472, T=7d capsid of 72 L1 pentamers. L2 copy number is unknown and no L2 density was seen. Expressed from p58sheLL, whose L1 and L2 may carry isolate-variant residues.). In words: cryo-EM structure; purified PsV58 mixed with Fab in 1.5-fold excess (pseudovirus-Fab molar ratio 1:540), 37°C for 2 h; icosahedral and 2-fold subparticle reconstruction. Conditions: both partners purified.

The target in experiment [4] is T2, HPV58 pseudovirus (PsV58) capsid. Nature of the experiment: cell-based or functional assay.

B1: nAb 2H3 (anti-HPV58 neutralizing monoclonal antibody, full length) (antibody, V domains shown)
VH: QVQLLQSGAELVRPGSSVKISCKASGYVFTSYWMHWVKQRPGQGLEWIGQIYPGDGGTHYNGNFRDKATLTADKSSSTAYMHLSSLTSEDSAVYFCARKIYDGYGFSYWGQGTLVTVS
VL: DIQMTQSPASLSVSVGETVTITCRASENIYSNLIWYQQKQGKSPQLLVYAATNLADGVPSRFSGSGSGTQYSLKINSLQSEDFGSYYCQHFWGTPLTFGAGTKLEIKR
notes: variable domain of the heavy chain of nAb 2H3; variable domain of the light chain of nAb 2H3; Mouse IgG1; source: mouse hybridoma, ascites of BALB/c mice, purified (protein A-agarose)
As for B1, in experiment [1], the “neutralization titer, pseudovirus-based neutralization assay in 293FT cells (first well 1 μg/ml nAb, 2-fold dilutions)” value worked out at 51200. Moreover, the “inhibition rate of the nAb against rabbit antiserum to HPV58 VLPs” value (shortened to “inhibition rate of the nAb”) in experiment [2] amounted to 87%.

B2: Fab fragment of nAb 2H3 (Fab, V domains shown)
VH: B1 VH
VL: B1 VL
notes: variable domain of the heavy chain of nAb 2H3; variable domain of the light chain of nAb 2H3; Fab of a mouse IgG1; the Fab model in the structure is a homology model; also called Fab 2H3; 2H3 Fab; source: papain digest of the purified nAb, separated from Fc on a TSKgel DEAE-5PW column
For B2, the stoichiometry N – broadly, the number of molecules, sites or subunits per partner or assembly – in experiment [3] amounted to 4 Fabs per asymmetric unit.

B3: nAb 5G9 (anti-HPV58 neutralizing monoclonal antibody, full length) (antibody, V domains shown)
VH: EVMLVESGGGLVKPGGSLKLSCVASGFTFSDYAMSWGRQTPEKRLEWVATISSGGVSTYHPDSVKGRFTMSRDNAKNTLYLQMSSLRSEDTAKYYCARGGGRYAMDYWGQGTSVTVS
VL: DVQITQSPSYLAASPGETITINCRASKSINKYLAWYQEKPGTTNKLLIYSGSTLQSGIPSRFSGRGSGTDFTLTISSLEPEDLAVYYCQQYNEYPWTFGGGTKLEIKR
notes: variable domain of the heavy chain of nAb 5G9; variable domain of the light chain of nAb 5G9; Mouse IgG2a; source: mouse hybridoma, ascites of BALB/c mice, purified (protein A-agarose)
Take B3: in experiment [1], the “neutralization titer, pseudovirus-based neutralization assay in 293FT cells (first well 1 μg/ml nAb, 2-fold dilutions)” value was 410000. Besides, in experiment [2], the “inhibition rate of the nAb” value was 59%.

B4: Fab fragment of nAb 5G9 (Fab, V domains shown)
VH: B3 VH
VL: B3 VL
notes: variable domain of the heavy chain of nAb 5G9; variable domain of the light chain of nAb 5G9; Fab of a mouse IgG2a; the Fab model in the structure is a homology model; also called Fab 5G9; 5G9 Fab; source: papain digest of the purified nAb, separated from Fc on a TSKgel DEAE-5PW column
In the case of B4, the “stoichiometry N” value in experiment [3] was found to be 1 Fab per capsomer.

B5: nAb A4B4 (anti-HPV58 neutralizing monoclonal antibody, full length) (antibody, V domains shown)
VH: QVTLKESGPGILQPSQTLSLTCSFSGFSLSTSGMGVGWIRQPSGKGLEWLAHIWWNDDKNYHPALKSRLTISKDTSSNRVFLNIASVDTADTATYYCARIHYVTDALDYWGQGTSVTVS
VL: DIVMSQSPSSLAVSVGEKVTMSCKSSQSLLYSSIQKNYLAWYQQKPGQSPKLLIYWASIRESGVPDRFTGSGSGTDFTLTISSVKAEDLAVYYCQRYYGYPWTFGGGTKLEIKR
notes: variable domain of the heavy chain of nAb A4B4; variable domain of the light chain of nAb A4B4; Mouse IgG2a; source: mouse hybridoma, ascites of BALB/c mice, purified (protein A-agarose)
In the case of B5, in experiment [1], the “neutralization titer, pseudovirus-based neutralization assay in 293FT cells (first well 1 μg/ml nAb, 2-fold dilutions)” value stood at 12800. The “inhibition rate of the nAb” value in experiment [2] worked out at 71%.

B6: Fab fragment of nAb A4B4 (Fab, V domains shown)
VH: B5 VH
VL: B5 VL
notes: variable domain of the heavy chain of nAb A4B4; variable domain of the light chain of nAb A4B4; Fab of a mouse IgG2a; the Fab model in the structure is a homology model; also called Fab A4B4; A4B4 Fab; source: papain digest of the purified nAb, separated from Fc on a TSKgel DEAE-5PW column
With B6, the “IC50 of neutralization of PsV58 by the Fab form” value in experiment [4] came out at 1.28 µg/mL. Further, the “stoichiometry N” value in experiment [3] came out at 4 Fabs per asymmetric unit.
